By Km is commonly meant the substrate concentration at which the rate is half of its maximum.

Substrate in this data set: CC(C)=CCC/C(C)=C/CC/C(C)=C/CO[P@@](=O)(O)OP(=O)(O)O
Briefly: purified protein. The settings on record: Mg2+ active site.

B1: 5-epi-aristolochene synthase (TEAS) (Nicotiana tabacum) (protein)
chain: MASAAVANYEEEIVRPVADFSPSLWGDQFLSFSIKNQVAEKYAKEIEALKEQTRNMLLATGMKLADTLNLIDTIERLGISYHFEKEIDDILDQIYNQNSNCNDLCTSALQFRLLRQHGFNISPEIFSKFQDENGKFKESLASDVLGLLNLYEASHVRTHADDILEDALAFSTIHLESAAPHLKSPLREQVTHALEQCLHKGVPRVETRFFISSIYDKEQSKNNVLLRFAKLDFNLLQMLHKQELAQVSRWWKDLDFVTTLPYARDRVVECYFWALGVYFEPQYSQARVMLVKTISMISIVDDTFDAYGTVKELEAYTDAIQRWDINEIDRLPDYMKISYKAILDLYKDYEKELSSAGRSHIVCHAIERMKEVVRNYNVESTWFIEGYTPPVSEYLSNALATTTYYYLATTSYLGMKSATEQDFEWLSKNPKILEASVIICRVIDDTATYEVEKSRGQIATGIECCMRDYGISTKEAMAKFQNMAETAWKDINEGLLRPTPVSTEFLTPILNLARIVEVTYIHNLDGYTHPEKVLKPHIINLLVDSIKI
B1: the Km was determined as 4.47 µM.
